# Results from article PMC9191654.
# Legend:
# [1] = biological target: anti-OX40 antibody 1A7 with the Fc hexamer variant E345R/E430G/S440Y (RGY); test: SEC
# [2] = biological target: anti-OX40 antibody 1A7 with the κ3-11(49–61) light chain graft and the Fc hexamer variant E345R/E430G/S440Y (RGY); test: SEC
stoichiometry N [1],stoichiometry N [2],Binder
6,,"anti-OX40 antibody 1A7 with the Fc hexamer variant E345R/E430G/S440Y (RGY) (antibody, V domains shown) VH: EVQLVQSGAEVKKPGASVKVSCKASGYTFTDSYMSWVRQAPGQGLEWIGDMYPDNGDSSYNQKFRERVTITRDTSTSTAYLELSSLRSEDTAVYYCVLAPRWYFSVWGQGTLVTVSS VL: DIQMTQSPSSLSASVGDRVTITCRASQDISNYLNWYQQKPGKAPKLLIYYTSRLRSGVPSRFSGSGSGTDFTLTISSLQPEDFATYYCQQGHTLPPTFGQGTKVEIK"
,6,"anti-OX40 antibody 1A7 with the κ3-11(49–61) light chain graft and the Fc hexamer variant E345R/E430G/S440Y (RGY) (antibody, V domains shown) VH: EVQLVQSGAEVKKPGASVKVSCKASGYTFTDSYMSWVRQAPGQGLEWIGDMYPDNGDSSYNQKFRERVTITRDTSTSTAYLELSSLRSEDTAVYYCVLAPRWYFSVWGQGTLVTVSS VL: DIQMTQSPSSLSASVGDRVTITCRASQDISNYLNWYQQKPGKAPKLLIYDASNRATGIPARFSGSGSGTDFTLTISSLQPEDFATYYCQQGHTLPPTFGQGTKVEIK"
